Reference: patent publication US20200385745

B1: keratinase derived from Brevibacillus parabrevis (CGMCC No. 10798), parent keratinase (protein)
chain: AQTVPYGIPQIKAPAVHAQGYKGANVKVAVLDTGIHAAHPDLNVAGGASFVPSEPNATQDFQSHGTHVAGTIAALDNTIGVLGVAPSASLYAVKVLDRYGDGQYSWIISGIEWAVANNMDVINMSLGGPSGSTALKNTVDTANNRGVVVVAAAGNSGSSGSSSTVGYPAKYDSTIAVANVNSNNVRNSSSSAGPELDVSAPGTSILSTVPSSGYTSYTGTSMASPHVAGAAALILSKNPNLTNSQVRQRLENTATPLGDSFYYGKGLINVQAASN
B2: keratinase double mutant N181D-T218S (protein)
chain: AQTVPYGIPQIKAPAVHAQGYKGANVKVAVLDTGIHAAHPDLNVAGGASFVPSEPNATQDFQSHGTHVAGTIAALDNTIGVLGVAPSASLYAVKVLDRYGDGQYSWIISGIEWAVANNMDVINMSLGGPSGSTALKNTVDTANNRGVVVVAAAGNSGSSGSSSTVGYPAKYDSTIAVANVDSNNVRNSSSSAGPELDVSAPGTSILSTVPSSGYTSYSGTSMASPHVAGAAALILSKNPNLTNSQVRQRLENTATPLGDSFYYGKGLINVQAASN
B3: keratinase mutant N181D (protein)
chain: AQTVPYGIPQIKAPAVHAQGYKGANVKVAVLDTGIHAAHPDLNVAGGASFVPSEPNATQDFQSHGTHVAGTIAALDNTIGVLGVAPSASLYAVKVLDRYGDGQYSWIISGIEWAVANNMDVINMSLGGPSGSTALKNTVDTANNRGVVVVAAAGNSGSSGSSSTVGYPAKYDSTIAVANVDSNNVRNSSSSAGPELDVSAPGTSILSTVPSSGYTSYTGTSMASPHVAGAAALILSKNPNLTNSQVRQRLENTATPLGDSFYYGKGLINVQAASN
B4: keratinase mutant T218S (protein)
chain: AQTVPYGIPQIKAPAVHAQGYKGANVKVAVLDTGIHAAHPDLNVAGGASFVPSEPNATQDFQSHGTHVAGTIAALDNTIGVLGVAPSASLYAVKVLDRYGDGQYSWIISGIEWAVANNMDVINMSLGGPSGSTALKNTVDTANNRGVVVVAAAGNSGSSGSSSTVGYPAKYDSTIAVANVNSNNVRNSSSSAGPELDVSAPGTSILSTVPSSGYTSSTGTSMASPHVAGAAALILSKNPNLTNSQVRQRLENTATPLGDSFYYGKGLINVQAASN
B5: keratinase mutant S236C (protein)
chain: AQTVPYGIPQIKAPAVHAQGYKGANVKVAVLDTGIHAAHPDLNVAGGASFVPSEPNATQDFQSHGTHVAGTIAALDNTIGVLGVAPSASLYAVKVLDRYGDGQYSWIISGIEWAVANNMDVINMSLGGPSGSTALKNTVDTANNRGVVVVAAAGNSGSSGSSSTVGYPAKYDSTIAVANVNSNNVRNSSSSAGPELDVSAPGTSILSTVPSSGYTSYTGTSMASPHVAGAAALILCKNPNLTNSQVRQRLENTATPLGDSFYYGKGLINVQAASN

Each protein was assayed against keratin (substrate of the keratinase activity assay).
B1 was tested, and the Km was 2100 µM.
For B2, the Km was 1800 µM.
B3 showed a Km of 1900 µM.
B4 gave a Km of 1500 µM.
B5 gave a Km of 2200 µM.
